In assay [1] the target is T1, PD-L1 on CHO-PD-L1 cells (Promega PD-1/PD-L1 Blockade Bioassay) (UniProt Q9NZQ7 19-290, limits assumed). The assay can be described thus: cell-based or functional assay.
For assay [2], the target named is T2, PD-L1-His antigen (human, UniProt Q9NZQ7 19-238).
T2 construct: Human PD-L1 ECD with C-terminal 8xHIS tag, expressed in HEK293F; also called hPDL1-His; human PD-L1-His
The assay can be described thus: SPR (Biacore), method of Example 5, 1:1 Binding fit. (In general: In SPR one partner is held on a chip, and binding of the other changes the refractive index at the surface.)

Assay [3] concerns the target T3, CD47-His antigen (human, UniProt Q08722 19-139).
T3 construct: Human CD47 ECD with C-terminal 8xHIS tag, expressed in HEK293F; also called hCD47-His; human CD47-His
Described as above.

Assay [4] has as its target T2, PD-L1-His antigen. The description is as above. The source holds these as a separate data set.
For assay [5], the target named is T3, CD47-His antigen. The assay is described as above. The source holds these as a separate data set.
Assay [6] addresses T3, CD47-His antigen. The assay can be described thus: SPR (Biacore), method of Example 5, Two State Reaction fit.
Assay [7] deals with T1, PD-L1 on CHO-PD-L1 cells (Promega …). The assay can be described thus: cell-based or functional assay. The source holds these as a separate data set.
For assay [8], the target named is T3, CD47-His antigen. The assay can be described thus: competitive ELISA, CD47-His coated, competitor SIRPα-Fc-Bio 0.1 µg/mL.
For assay [9], the target named is T1, PD-L1 on CHO-PD-L1 cells (Promega …). Briefly: cell-based or functional assay. The source holds these as a separate data set.
The target of assay [10] is T4, human PD-L1 on PD-L1-CHO cells (human, UniProt Q9NZQ7 19-290).
T4 construct: whole, on cells; also called CHO cells overexpressing human PD-L1; PD-L1 expressed on the cell surface
Briefly: FACS on PD-L1-CHO cells, PE-labeled anti-human Fc secondary antibody; MFI(Mean) against Con(nM).

For assay [11], the target named is T2, PD-L1-His antigen. Briefly: SPR (Biacore T200), PD-L1-His immobilised on chip, antibody as mobile phase, 1:1 Binding fit.

Residue numbers refer to the chain shown, from its start. Read-outs that look alike come from different tables or passages of the source.

T4 sequence (Q9NZQ7 19-290): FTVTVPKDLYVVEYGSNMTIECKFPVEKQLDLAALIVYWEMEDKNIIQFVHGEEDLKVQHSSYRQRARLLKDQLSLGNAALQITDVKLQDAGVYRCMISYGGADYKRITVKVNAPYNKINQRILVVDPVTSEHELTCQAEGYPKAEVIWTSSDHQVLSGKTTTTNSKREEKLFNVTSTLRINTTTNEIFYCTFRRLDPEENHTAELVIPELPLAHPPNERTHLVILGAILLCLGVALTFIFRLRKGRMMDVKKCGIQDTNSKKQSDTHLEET
T1 sequence (Q9NZQ7 19-290 limits assumed): as the sequence (Q9NZQ7 19-290) above
T2 sequence (Q9NZQ7 other isoform, or with tags, fused parts or gaps limits assumed): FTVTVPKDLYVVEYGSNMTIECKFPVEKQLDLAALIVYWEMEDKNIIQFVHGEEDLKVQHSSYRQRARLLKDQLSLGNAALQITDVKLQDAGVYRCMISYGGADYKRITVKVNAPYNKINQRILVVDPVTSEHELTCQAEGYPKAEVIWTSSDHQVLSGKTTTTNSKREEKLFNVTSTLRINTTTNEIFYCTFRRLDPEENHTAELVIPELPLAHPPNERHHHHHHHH
T3 sequence (Q08722 other isoform, or with tags, fused parts or gaps limits assumed): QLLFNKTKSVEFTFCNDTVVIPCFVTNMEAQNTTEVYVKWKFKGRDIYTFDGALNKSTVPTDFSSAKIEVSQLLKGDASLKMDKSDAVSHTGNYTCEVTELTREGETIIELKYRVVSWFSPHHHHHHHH

B1: L1-R2-78 (antibody, V domains shown)
VH: not shown
VL: DIQMTQSPSSFSASTGDRVTITCRASQGISSYLAWYQQKPGKAPKLLIYAASRLQSGVPSRFSGSGSGTDFTLTISSLQAEDVAVYYCQQYYSTPYTFGQGTKVDIKR
notes: Anti-PD-L1 monoclonal antibody, VH CP11-27 with light chain R2-78; also called LI-R2-78
In the case of B1, the “EC50 (luciferase reporter, PD-1/PD-L1 blockade MOA assay; blocked partner: PD-1 on Jurkat-PD1 cells)” value in assay [1] amounted to 3.57 µg/mL. Moreover, in assay [2], the Kd – broadly, the free concentration of one partner at which half of the binding sites on the other are occupied at equilibrium, for simple one-to-one binding – was 8.99 nM.

B2: 47-R2-78 (antibody, human IgG1, kappa, V domains shown)
VH: QVQLQESGPGLVKPSETLSLTCTVSGGSLDNYYWSWIRQPPGKGLEWIGYIYYSGNTNYNPSLKSRVTISVDTSKNQFSLKLSSVTAADTAVYYCARGGRFLERYWGQGTLVTVSS
VL: B1 VL
notes: Anti-CD47 monoclonal antibody, L12-6-VH with light chain R2-78
In the case of B2, the Kd in [3] amounted to 655 nM.

B3: 47-R2-85 (antibody, human IgG1, kappa, V domains shown)
VH: B2 VH
VL: B1 VL with F11L, T15V, T22P, S30G, S31K, Y32F, K45S, R53S, A80T, Y92F
notes: Anti-CD47 monoclonal antibody, L12-6-VH with light chain R2-85
In the case of B3, in assay [3], the Kd was 275 nM.

B4: BsAb-71 (bispecific antibody, human IgG1, kappa)
heavy 1: not shown
heavy 2: not shown
light: EIVLTQSPSSLSASVGDRVTITCLASQTIGTWLAWYQQKPGKSPQLLIYAASTLQSGVPSRFSGSGSGTDFTLTISSLQPEDVATYYCQQYYSTPRTFGQGTKVEIKRTVAAPSVFIFPPSDEQLKSGTASVVCLLNNFYPREAKVQWKVDNALQSGNSQESVTEQDSKDSTYSLSSTLTLSKADYEKHKVYACEVTHQGLSSPVTKSFNRGEC
notes: Knob-into-hole IgG1-like bispecific with common light chain; first heavy chain is the anti-PD-L1 arm, second the anti-CD47 arm; also called anti-PD-L1/CD47 bispecific antibody BsAb-71
As for B4, the dissociation constant Kd in assay [4] came out at 0.174 nM; in [5], 27.8 nM; in assay [6], 3.78 nM. Moreover, in assay [7], the “EC50 (luciferase reporter, PD-1/PD-L1 blockade MOA assay; blocked partner: PD-1 on Jurkat-PD1 cells)” value was 0.285 µg/mL.

B5: L1-R2-6 (antibody, V domains shown)
VH: not shown
VL: EIVLTQSPSSVSASVGDKLTMTCQASQDIGKHLNWYQQKPGKPPKLLIYGASNLKTGVPSRFSGTGSGTDFTLTISSLQPEDFATYYCQQSYTTPYTFGQGTRLEIKR
notes: Anti-PD-L1 monoclonal antibody, VH CP11-27 with light chain R2-6; also called LI-R2-6
For B5, the “EC50 (luciferase reporter, PD-1/PD-L1 blockade MOA assay; blocked partner: PD-1 on Jurkat-PD1 cells)” value in assay [1] was 3.92 µg/mL. The molecule also had a Kd in assay [2] of 10.3 nM.

B6: 47-R2-6 (antibody, human IgG1, kappa, V domains shown)
VH: B2 VH
VL: B5 VL
notes: Anti-CD47 monoclonal antibody, L12-6-VH with light chain R2-6
With B6, binding in assay [3] was characterised by a dissociation constant (Kd) of 1.11 nM.

B7: antibody 18 (antibody, human IgG1, kappa, V domains shown)
VH: QVQLQESGPGLVKPSETLSLTCTVSGGSLDNYYWSWIRQPPGKGLEWIGYIYYSGNTNYNPSLKSRVTISVDTSKNQFSLRLRSVTAADTAVYYCARGRGIFGYWGQGTLVTVSS
VL: DIQMTQSPSSVSASVGDRVTISCRANQAIGTWLAWYQQKPGKAPKLLIYAASTLQSGVPSRFSGSGSGTEFTLTISSLQAEDVAVYYCQQYYTTPLTFGGGTKLEIKR
notes: IgG1 complete anti-CD47 antibody
Consider B7, for which the IC50 – broadly, the midpoint of a concentration-inhibition curve – in assay [8] is 1.23 µg/mL.

B8: antibody 25 (antibody, human IgG1, kappa, V domains shown)
VH: B7 VH with R99G, G100R, Y104H
VL: B7 VL
notes: as for B7
In assay [8], B8 returned an IC50 of 1.31 µg/mL.

B9: antibody L12-6 (antibody, human IgG1, kappa, V domains shown)
VH: B2 VH
VL: EIVLTQSPSSLSASVGDRVTIPCRASLSIGSFLNWYQQRPGEAPKLLIFAASSLRSGVPSRFSGSGSGTDFTLTISGLQPEDFATYYCQQTYTTPYTFGQGTKVDIKR
notes: as for B7
On to B9, for which, in assay [8], the half-inhibitory concentration (IC50) was determined as 0.913 µg/mL.

B10: antibody 3-6 (antibody, human IgG1, kappa, V domains shown)
VH: B2 VH with K81R, S83R, F101I, L102F, E103A, R104G
VL: B7 VL
notes: as for B7
In the case of B10, the concentration for half-maximal inhibition (IC50) in assay [8] was 1.12 µg/mL.

B11: antibody 16 (antibody, human IgG1, kappa, V domains shown)
VH: B2 VH with K81R, S83R, F101I, L102F, E103S, R104G
VL: B7 VL
notes: as for B7
B11 had a half-inhibitory concentration (IC50) in assay [8] of 0.975 µg/mL.

B12: antibody 24 (antibody, human IgG1, kappa, V domains shown)
VH: QVQLQESGPGLVKPSETLSLTCTVSGGSLDNYYWSWIRQPPGKGLEWIGRIYGDSATNYNPSLKSRVTISVDTSKNQFSLRLRSVTAADTAVYYCARGGRIFSGYWGQGTLVTVSS
VL: B7 VL
notes: as for B7
As to B12, the IC50 in assay [8] amounted to 1.41 µg/mL.

B13: antibody 17 (antibody, human IgG1, kappa, V domains shown)
VH: B2 VH with K81R, S83R
VL: B7 VL
notes: as for B7
In the case of B13, the IC50 in assay [8] is 0.795 µg/mL.

B14: antibody 3 (antibody, human IgG1, kappa, V domains shown)
VH: B12 VH with N31G, D54N, A56T, S103A
VL: B7 VL
notes: as for B7
As for B14, the IC50 in assay [8] is 0.844 µg/mL.

B15: antibody 3-3 (antibody, human IgG1, kappa, V domains shown)
VH: B12 VH with R50Y, G53Y, D54S, S55G, A56N, S103G
VL: B7 VL
notes: as for B7
On to B15, for which the 50% inhibitory concentration (IC50) in [8] stood at 0.939 µg/mL.

B16: antibody 10 (antibody, human IgG1, kappa, V domains shown)
VH: B12 VH with G53Y, D54N, S55G, A56N, F102L, S103A
VL: B7 VL
notes: as for B7
Take B16: in assay [8], the concentration for half-maximal inhibition (IC50) came out at 1.06 µg/mL.

B17: antibody 6 (antibody, human IgG1, kappa, V domains shown)
VH: B12 VH with D30N, N31D, D54N, S55G, A56D, F102L, S103A
VL: B7 VL
notes: as for B7
As for B17, the half-inhibitory concentration (IC50) in [8] amounted to 1.1 µg/mL.

B18: L1-R2-4-46 (antibody, human IgG1, kappa, V domains shown)
VH: EVQLVESGGGLVQPGGSLRLSCAASGFTFSDSWIHWVRQAPGKGLEWVGWISPYGGSTYYADSLGDRFTISADTSKNTAYLQMNSLRAEDTAVYYCARRHWPGGFDYWGQGTLVTVSS
VL: EIVLTQSPSSLSASVGDRVTITCLASQTIGTWLAWYQQKPGKSPQLLIYAASTLQSGVPSRFSGSGSGTDFTLTISSLQPEDVATYYCQQYYSTPRTFGQGTKVEIKR
In the case of B18, the “EC50 (luciferase reporter, PD-1/PD-L1 blockade MOA assay; blocked partner: PD-1 on Jurkat-PD1 cells)” value in [9] stood at 0.224 µg/mL. In addition, the EC50 (read off the curve) – broadly, the concentration giving half of the maximal effect – was ~1 µg/mL in [9] and ~0.6 nM in assay [10]. The molecule further returned an equilibrium dissociation constant (Kd) in assay [11] of 0.282 nM.

B19: L1-R2-4 (antibody, V domains shown)
VH: not shown
VL: B18 VL
notes: Anti-PD-L1 monoclonal antibody, VH CP11-27 with light chain R2-4; also called LI-R2-4
B19: in [1], the “EC50 (luciferase reporter, PD-1/PD-L1 blockade MOA assay; blocked partner: PD-1 on Jurkat-PD1 cells)” value came to 2.74 µg/mL. In [2], this molecule yielded a Kd of 1.67 nM.

B20: L1-R2-4-47 (antibody, human IgG1, kappa, V domains shown)
VH: B18 VH with S63H, G65S, D66Q
VL: B18 VL
B20: in assay [9], the “EC50 (luciferase reporter, PD-1/PD-L1 blockade MOA assay; blocked partner: PD-1 on Jurkat-PD1 cells)” value was determined as 0.389 µg/mL and the half-maximal effective concentration (EC50 (read off the curve)) is ~2 µg/mL. In [10], the 50% effective concentration (EC50 (read off the curve)) was ~0.6 nM. This molecule also returned a dissociation constant (Kd) in assay [11] of 0.29 nM.

B21: L1-R2-89 (antibody, V domains shown)
VH: not shown
VL: B18 VL with E1D, V3Q, L4M, T53S, R96Y, E105D
notes: Anti-PD-L1 monoclonal antibody, VH CP11-27 with light chain R2-89; also called LI-R2-89
Turning to B21, the “EC50 (luciferase reporter, PD-1/PD-L1 blockade MOA assay; blocked partner: PD-1 on Jurkat-PD1 cells)” value in [1] came to 3.78 µg/mL. Also, the dissociation constant (Kd) in assay [2] came out at 4.08 nM.

B22: L1-R2-4-55 (antibody, human IgG1, kappa, V domains shown)
VH: B18 VH with S63G, L64M, G65R, D66S
VL: B18 VL
For B22, in assay [9], the “EC50 (luciferase reporter, PD-1/PD-L1 blockade MOA assay; blocked partner: PD-1 on Jurkat-PD1 cells)” value was 0.401 µg/mL and the concentration giving a half-maximal response (EC50 (read off the curve)) is ~2 µg/mL. This molecule returned a Kd in [11] of 0.371 nM.

B23: L1-R2-4-36 (antibody, human IgG1, kappa, V domains shown)
VH: B18 VH with S63D, L64F, G65R, D66H
VL: B18 VL
B23: in [9], the “EC50 (luciferase reporter, PD-1/PD-L1 blockade MOA assay; blocked partner: PD-1 on Jurkat-PD1 cells)” value is 0.148 µg/mL. Besides, the “EC50 (read off the curve)” value in [9] is ~1 µg/mL; in assay [10] it was ~0.6 nM. The molecule also yielded a Kd in assay [11] of 0.341 nM.

B24: L1-R2-18 (antibody, V domains shown)
VH: not shown
VL: EIVLTQSPSSVSASVGDRITITCRASQGIGSWLAWYQQKPGKAPSLLIYAASSLQSGVPSRFSGSGSGTDFTLTISSLQTEDVAVYYCQQYFSTPYTFGQGTKVDIKR
notes: Anti-PD-L1 monoclonal antibody, VH CP11-27 with light chain R2-18; also called LI-R2-18
For B24, the “EC50 (luciferase reporter, PD-1/PD-L1 blockade MOA assay; blocked partner: PD-1 on Jurkat-PD1 cells)” value in assay [1] is 5.09 µg/mL. Besides, in assay [2], binding was characterised by a dissociation constant (Kd) of 3.92 nM.

B25: L1-R2-85 (antibody, V domains shown)
VH: not shown
VL: B24 VL with E1D, V3Q, L4M, V11L, I19V, T22P, S31K, W32F
notes: Anti-PD-L1 monoclonal antibody, VH CP11-27 with light chain R2-85; also called LI-R2-85
With B25, the “EC50 (luciferase reporter, PD-1/PD-L1 blockade MOA assay; blocked partner: PD-1 on Jurkat-PD1 cells)” value in assay [1] was determined as 5.22 µg/mL. The same molecule registered a dissociation constant Kd in assay [2] of 11.5 nM.

The values above are taken from patent US20240067728A1 (BIO THERA SOLUTIONS, published 2024).
